Patent WO2014037419A1 (dated 2014)

B1: NbhCD74n49 (VHH)
VHH: QVQLQESGGGSVQAGGSLRLSCVASGLVYSLKAYDWGWARQAPGKECELVGRIMPNGATVYIDSVKGRFIISRENSNNTVYLQMNSLKFEDTAVYYCARVGDPSGGWCKGQGTQVTVSS
notes: also called Nb_49; NB_49
B2: Recombinant human MIF 2-115 (ligand)
chain: PMFIVNTNVPRASVPDGFLSELTQQLAQATGKPPQYIAVHVVPDQLMAFGGSSEPCALCSLHSIGKIGGAQNRSYSKLLCGLLAERLRISPDRVYINYYDMNAASVGWNNSTFA

Legend:
[1] = molecular target: T1, Mouse CD74 on cells (C57Black/6 PECs, MC-38, 3LL) (mouse) (UniProt P04441); experiment: FACS competition, PECs of MIF-/- mice, APC-labeled MIF 200ng as competitor/tracer plus Nb_49 (5 ug or 0.3 nM)
T1 sequence: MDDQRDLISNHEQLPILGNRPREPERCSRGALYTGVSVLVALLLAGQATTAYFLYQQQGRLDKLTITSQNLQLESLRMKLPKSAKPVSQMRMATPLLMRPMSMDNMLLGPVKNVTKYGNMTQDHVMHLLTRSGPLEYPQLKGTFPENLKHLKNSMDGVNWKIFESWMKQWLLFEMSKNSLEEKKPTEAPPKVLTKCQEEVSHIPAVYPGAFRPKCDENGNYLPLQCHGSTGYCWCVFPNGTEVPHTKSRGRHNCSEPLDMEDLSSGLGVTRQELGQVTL

[2] = molecular target: T2, Recombinant human CD74 73-232 (human, UniProt P04233 73-296); experiment: BIAcore SPR, biotinylated Nb_49 on streptavidin chip, recombinant human CD74 73-232 at 0.05-500 nM as analyte
T2 construct: Bought from R&D Systems (NP_004346.1); The entry includes the N-terminal hemagglutinin tag; also called R&D systems 3590-CD
T2 sequence: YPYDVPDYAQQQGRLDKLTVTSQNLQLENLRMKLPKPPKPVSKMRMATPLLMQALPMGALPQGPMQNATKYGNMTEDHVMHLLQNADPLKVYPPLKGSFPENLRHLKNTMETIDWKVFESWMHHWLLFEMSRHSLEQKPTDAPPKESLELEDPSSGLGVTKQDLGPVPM

[3] = molecular target: T1, Mouse CD74 on cells (C57Black/6 PECs, MC-38, 3LL) (mouse); experiment: FACS competition, PECs of WT mice, APC-labeled MIF 200ng as competitor/tracer plus Nb_49 (5 ug or 0.3 nM)
[4] = molecular target: T1, Mouse CD74 on cells (C57Black/6 PECs, MC-38, 3LL) (mouse); experiment: FACS, PECs of MIF-/- mice, APC-labeled MIF 200ng pre-incubated with the small molecule ISO-1 (20 nM)
[5] = molecular target: T1, Mouse CD74 on cells (C57Black/6 PECs, MC-38, 3LL) (mouse); experiment: FACS, PECs of WT mice, APC-labeled MIF 200ng pre-incubated with the small molecule ISO-1 (20 nM)
[6] = molecular target: T1, Mouse CD74 on cells (C57Black/6 PECs, MC-38, 3LL) (mouse); experiment: FACS, PECs of WT mice, APC-labeled MIF 200ng alone (cells without MIF: 22.4)
[7] = molecular target: T1, Mouse CD74 on cells (C57Black/6 PECs, MC-38, 3LL) (mouse); experiment: FACS, PECs of MIF-/- mice, APC-labeled MIF 200ng alone (cells without MIF: 25.6)

Row | Binder | mean fluorescence intensity of APC-labeled MIF bound to the cells [1] | Kd [2] | koff [2] | kon [2] | mean fluorescence intensity of APC-labeled MIF bound to the cells [3] | mean fluorescence intensity of APC-labeled MIF bound to the cells [4] | mean fluorescence intensity of APC-labeled MIF bound to the cells [5] | mean fluorescence intensity of APC-labeled MIF bound to the cells [6] | mean fluorescence intensity of APC-labeled MIF bound to the cells [7]
1 | B1 | 69.4 | 5.73 nM | 0.000581 s⁻¹ | 102000 M⁻¹ s⁻¹ | 46.2 | – | – | – | –
2 | B2 | – | – | – | – | – | 61 | 49.9 | 64.8 | 120
